Values of other authors, collected in publication PMC5662687.

Biological target: ICAM-1 (Homo sapiens) (UniProt P05362)
Sequence (P05362 28-480): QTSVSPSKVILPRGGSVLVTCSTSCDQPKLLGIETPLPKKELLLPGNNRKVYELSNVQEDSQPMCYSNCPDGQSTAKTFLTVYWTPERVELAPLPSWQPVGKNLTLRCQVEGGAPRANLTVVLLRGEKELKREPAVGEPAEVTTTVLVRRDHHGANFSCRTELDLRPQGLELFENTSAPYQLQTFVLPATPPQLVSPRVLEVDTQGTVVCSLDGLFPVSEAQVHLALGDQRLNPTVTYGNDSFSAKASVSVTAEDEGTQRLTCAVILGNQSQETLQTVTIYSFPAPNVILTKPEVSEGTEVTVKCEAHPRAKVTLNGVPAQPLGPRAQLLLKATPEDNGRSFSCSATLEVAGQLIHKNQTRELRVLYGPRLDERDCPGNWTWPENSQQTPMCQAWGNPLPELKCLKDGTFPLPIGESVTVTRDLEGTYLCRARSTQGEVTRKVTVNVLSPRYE

Chain of LFA-1 (P20701 26-1090): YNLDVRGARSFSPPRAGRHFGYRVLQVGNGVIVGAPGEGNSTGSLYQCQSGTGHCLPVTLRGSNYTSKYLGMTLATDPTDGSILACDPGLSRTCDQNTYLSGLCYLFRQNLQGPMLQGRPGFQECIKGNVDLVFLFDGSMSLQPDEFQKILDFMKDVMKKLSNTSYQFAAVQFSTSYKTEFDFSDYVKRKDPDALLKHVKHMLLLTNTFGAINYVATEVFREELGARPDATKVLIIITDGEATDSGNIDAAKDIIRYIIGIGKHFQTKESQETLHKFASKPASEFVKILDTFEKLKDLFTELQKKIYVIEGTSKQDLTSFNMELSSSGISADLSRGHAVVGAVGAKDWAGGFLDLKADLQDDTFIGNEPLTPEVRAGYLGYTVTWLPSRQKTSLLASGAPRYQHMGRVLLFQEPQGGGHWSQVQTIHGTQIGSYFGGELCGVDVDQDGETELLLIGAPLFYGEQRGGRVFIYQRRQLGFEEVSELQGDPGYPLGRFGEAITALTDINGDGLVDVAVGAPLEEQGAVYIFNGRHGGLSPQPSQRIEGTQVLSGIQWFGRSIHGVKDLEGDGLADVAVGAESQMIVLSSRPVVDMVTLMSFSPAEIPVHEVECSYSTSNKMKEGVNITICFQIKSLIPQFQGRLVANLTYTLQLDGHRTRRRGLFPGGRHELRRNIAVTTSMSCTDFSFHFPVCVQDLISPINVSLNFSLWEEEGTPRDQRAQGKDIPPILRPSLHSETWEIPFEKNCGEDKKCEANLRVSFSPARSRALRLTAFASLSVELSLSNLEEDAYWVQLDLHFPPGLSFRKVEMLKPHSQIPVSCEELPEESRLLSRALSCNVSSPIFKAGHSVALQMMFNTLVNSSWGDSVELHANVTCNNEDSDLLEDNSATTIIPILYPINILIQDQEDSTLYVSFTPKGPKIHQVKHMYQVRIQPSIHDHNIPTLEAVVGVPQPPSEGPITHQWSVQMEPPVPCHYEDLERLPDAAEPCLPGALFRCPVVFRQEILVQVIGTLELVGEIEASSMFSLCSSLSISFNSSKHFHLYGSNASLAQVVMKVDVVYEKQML
Chain of LFA-1 (P05107 23-700, further chain): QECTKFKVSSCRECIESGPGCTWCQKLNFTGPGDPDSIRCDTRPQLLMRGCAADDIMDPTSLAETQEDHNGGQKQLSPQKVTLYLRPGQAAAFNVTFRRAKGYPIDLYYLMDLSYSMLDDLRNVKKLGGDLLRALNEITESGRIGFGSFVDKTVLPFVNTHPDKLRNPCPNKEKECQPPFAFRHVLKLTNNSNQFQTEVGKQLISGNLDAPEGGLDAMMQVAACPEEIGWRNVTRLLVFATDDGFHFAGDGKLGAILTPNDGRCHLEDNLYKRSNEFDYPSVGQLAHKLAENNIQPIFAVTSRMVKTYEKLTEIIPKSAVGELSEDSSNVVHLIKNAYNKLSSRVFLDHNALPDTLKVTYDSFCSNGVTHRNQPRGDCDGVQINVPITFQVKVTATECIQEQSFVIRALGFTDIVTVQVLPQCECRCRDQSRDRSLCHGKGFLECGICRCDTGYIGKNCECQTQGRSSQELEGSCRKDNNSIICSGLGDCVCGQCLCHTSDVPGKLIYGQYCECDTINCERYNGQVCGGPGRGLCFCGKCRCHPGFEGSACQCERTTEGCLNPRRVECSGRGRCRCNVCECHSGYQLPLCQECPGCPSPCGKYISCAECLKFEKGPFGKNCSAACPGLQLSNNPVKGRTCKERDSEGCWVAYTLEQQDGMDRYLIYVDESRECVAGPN

LFA-1 (from UniProt P20701)
Kd: 1000 µM
